The target of one data set is T1, L-oxytocin (UniProt P01178).
T1 sequence: CYIQNCPLG
Nature of the data set: ITC. The conditions noted are these: L-RNA; hexaethylene glycol (PEG) spacer between Helix 2 and Helix 1; 3'-C6-amino 40 kDa PEG; 37 C; same buffer; activity 69.8%; about ten times lower affinity than ….

Data set [1] concerns T2, L-AVP ((Arg8)-vasopressin) (Homo sapiens).
T2 sequence: CYFQNCPRG
The data set is described as follows: ITC. The following applies: L-RNA, hexaethylene glycol (PEG) spacer between Helix 2 and Helix 1, 37 C, 20 mM Tris pH 7.4, 150 mM NaCl, 5 mM KCl, 1 mM MgCl2, 1 mM CaCl2.

Data set [2] has as its system T3, D-AVP (D-(Arg8)-vasopressin, all-D peptide) (Homo sapiens).
T3 sequence: CYFQNCPRG
Nature of the data set: competition. The conditions noted are these: biotinylated D-AVP; selection buffer.

For orientation: Kd means the free concentration of one partner at which half of the binding sites on the other are occupied at equilibrium, for simple one-to-one binding. Higher therefore signals weaker binding.

Consider “GGGGUAGGGCUUGGAUGGGUAGUACACGUGUGCGUGGU [CHF-F-037-3'PEG spiegelmer]”, for which the Kd with L-oxytocin came to 16 nM; in data set [1] (3'-C6-amino 40 kDa PEG, activity 59.1%) it was 1.3 nM.
In turn, “AGUGUGCGUGGUUAAUAAUGGGGUAGGGCUUGGAUGGGUAGUACACU [CHF-157-B4 (CHF-F-000)]” came in with an equilibrium dissociation constant (Kd) in data set [2] of 9.5 nM.
“GGGGUAGGGCUUGGAUGGGUAGUACACGUGUGCGUGGU [CHF-F-037 spiegelmer]” displayed an equilibrium dissociation constant (Kd) in data set [1] (activity 46.8%) of 1.7 nM.

(Values after US20090181909.)
